# Assay results published in IntAct's records for PubMed 29892012.
# B1: Cell division cycle-associated 7-like protein (Homo sapiens), Q96GN5 (parent)
# chain: MELATRYQIPKEVADIFNAPSDDEEFVGFRDDVPMETLSSEESCDSFDSLESGKQQDVRFHSKYFTEELRRIFIEDTDSETEDFAGFTQSDLNGKTNPEVMVVESDLSDDGKASLVSEEEEDEEEDKATPRRSRSRRSSIGLRVAFQFPTKKLANKPDKNSSSEQLFSSARLQNEKKTILERKKDCRQVIQREDSTSESEDDSRDESQESSDALLKRTMNIKENKAMLAQLLAELNSMPDFFPVRTPTSASRKKTVRRAFSEGQITRRMNPTRSARPPEKFALENFTVSAAKFAEEFYSFRRRKTIGGKCREYRRRHRISSFRPVEDITEEDLENVAITVRDKIYDKVLGNTCHQCRQKTIDTKTVCRNQGCCGVRGQFCGPCLRNRYGEDVRSALLDPDWVCPPCRGICNCSYCRKRDGRCATGILIHLAKFYGYDNVKEYLESLQKELVEDN
# partner: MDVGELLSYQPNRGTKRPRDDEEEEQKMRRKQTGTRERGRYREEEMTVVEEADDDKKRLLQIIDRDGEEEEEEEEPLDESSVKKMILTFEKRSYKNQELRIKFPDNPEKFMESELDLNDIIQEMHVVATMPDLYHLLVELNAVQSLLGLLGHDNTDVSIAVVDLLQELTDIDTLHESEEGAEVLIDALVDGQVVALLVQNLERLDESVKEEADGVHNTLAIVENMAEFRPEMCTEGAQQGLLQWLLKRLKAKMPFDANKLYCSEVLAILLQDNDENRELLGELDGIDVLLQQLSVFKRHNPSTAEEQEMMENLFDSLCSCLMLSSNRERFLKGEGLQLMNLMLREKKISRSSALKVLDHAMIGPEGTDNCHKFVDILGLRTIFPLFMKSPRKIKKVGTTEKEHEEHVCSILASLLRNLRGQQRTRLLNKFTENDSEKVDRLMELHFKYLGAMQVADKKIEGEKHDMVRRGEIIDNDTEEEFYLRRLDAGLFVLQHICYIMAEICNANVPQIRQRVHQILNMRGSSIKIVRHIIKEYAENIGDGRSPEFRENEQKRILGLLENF
# B2: Multifunctional procollagen lysine hydroxylase and glycosyltransferase LH3 (Homo sapiens), O60568 (parent)
# chain: MTSSGPGPRFLLLLPLLLPPAASASDRPRGRDPVNPEKLLVITVATAETEGYLRFLRSAEFFNYTVRTLGLGEEWRGGDVARTVGGGQKVRWLKKEMEKYADREDMIIMFVDSYDVILAGSPTELLKKFVQSGSRLLFSAESFCWPEWGLAEQYPEVGTGKRFLNSGGFIGFATTIHQIVRQWKYKDDDDDQLFYTRLYLDPGLREKLSLNLDHKSRIFQNLNGALDEVVLKFDRNRVRIRNVAYDTLPIVVHGNGPTKLQLNYLGNYVPNGWTPEGGCGFCNQDRRTLPGGQPPPRVFLAVFVEQPTPFLPRFLQRLLLLDYPPDRVTLFLHNNEVFHEPHIADSWPQLQDHFSAVKLVGPEEALSPGEARDMAMDLCRQDPECEFYFSLDADAVLTNLQTLRILIEENRKVIAPMLSRHGKLWSNFWGALSPDEYYARSEDYVELVQRKRVGVWNVPYISQAYVIRGDTLRMELPQRDVFSGSDTDPDMAFCKSFRDKGIFLHLSNQHEFGRLLATSRYDTEHLHPDLWQIFDNPVDWKEQYIHENYSRALEGEGIVEQPCPDVYWFPLLSEQMCDELVAEMEHYGQWSGGRHEDSRLAGGYENVPTVDIHMKQVGYEDQWLQLLRTYVGPMTESLFPGYHTKARAVMNFVVRYRPDEQPSLRPHHDSSTFTLNVALNHKGLDYEGGGCRFLRYDCVISSPRKGWALLHPGRLTHYHEGLPTTWGTRYIMVSFVDP
# partner: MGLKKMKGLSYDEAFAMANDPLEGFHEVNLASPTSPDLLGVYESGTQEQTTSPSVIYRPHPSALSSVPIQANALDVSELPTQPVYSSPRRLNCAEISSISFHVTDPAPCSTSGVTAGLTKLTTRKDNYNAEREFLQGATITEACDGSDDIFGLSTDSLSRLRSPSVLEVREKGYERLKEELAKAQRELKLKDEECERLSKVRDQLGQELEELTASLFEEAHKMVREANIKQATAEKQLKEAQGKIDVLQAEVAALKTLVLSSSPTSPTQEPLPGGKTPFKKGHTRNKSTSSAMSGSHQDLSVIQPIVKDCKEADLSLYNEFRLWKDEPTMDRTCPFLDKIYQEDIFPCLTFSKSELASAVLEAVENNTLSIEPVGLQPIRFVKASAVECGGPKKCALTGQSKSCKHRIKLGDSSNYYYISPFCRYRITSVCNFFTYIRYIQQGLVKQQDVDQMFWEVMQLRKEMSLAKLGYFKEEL
# B3: Coiled-coil alpha-helical rod protein 1 (Homo sapiens), Q8TD31 (parent)
# chain: MFPPSGSTGLIPPSHFQARPLSTLPRMAPTWLSDIPLVQPPGHQDVSERRLDTQRPQVTMWERDVSSDRQEPGRRGRSWGLEGSQALSQQAEVIVRQLQELRRLEEEVRLLRETSLQQKMRLEAQAMELEALARAEKAGRAEAEGLRAALAGAEVVRKNLEEGSQRELEEVQRLHQEQLSSLTQAHEEALSSLTSKAEGLEKSLSSLETRRAGEAKELAEAQREAELLRKQLSKTQEDLEAQVTLVENLRKYVGEQVPSEVHSQTWELERQKLLETMQHLQEDRDSLHATAELLQVRVQSLTHILALQEEELTRKVQPSDSLEPEFTRKCQSLLNRWREKVFALMVQLKAQELEHSDSVKQLKGQVASLQEKVTSQSQEQAILQRSLQDKAAEVEVERMGAKGLQLELSRAQEARRRWQQQTASAEEQLRLVVNAVSSSQIWLETTMAKVEGAAAQLPSLNNRLSYAVRKVHTIRGLIARKLALAQLRQESCPLPPPVTDVSLELQQLREERNRLDAELQLSARLIQQEVGRAREQGEAERQQLSKVAQQLEQELQQTQESLASLGLQLEVARQGQQESTEEAASLRQELTQQQELYGQALQEKVAEVETRLREQLSDTERRLNEARREHAKAVVSLRQIQRRAAQEKERSQELRRLQEEARKEEGQRLARRLQELERDKNLMLATLQQEGLLSRYKQQRLLTVLPSLLDKKKSVVSSPRPPECSASAPVAAAVPTRESIKGSLSVLLDDLQDLSEAISKEEAVCQGDNLDRCSSSNPQMSS
# partner: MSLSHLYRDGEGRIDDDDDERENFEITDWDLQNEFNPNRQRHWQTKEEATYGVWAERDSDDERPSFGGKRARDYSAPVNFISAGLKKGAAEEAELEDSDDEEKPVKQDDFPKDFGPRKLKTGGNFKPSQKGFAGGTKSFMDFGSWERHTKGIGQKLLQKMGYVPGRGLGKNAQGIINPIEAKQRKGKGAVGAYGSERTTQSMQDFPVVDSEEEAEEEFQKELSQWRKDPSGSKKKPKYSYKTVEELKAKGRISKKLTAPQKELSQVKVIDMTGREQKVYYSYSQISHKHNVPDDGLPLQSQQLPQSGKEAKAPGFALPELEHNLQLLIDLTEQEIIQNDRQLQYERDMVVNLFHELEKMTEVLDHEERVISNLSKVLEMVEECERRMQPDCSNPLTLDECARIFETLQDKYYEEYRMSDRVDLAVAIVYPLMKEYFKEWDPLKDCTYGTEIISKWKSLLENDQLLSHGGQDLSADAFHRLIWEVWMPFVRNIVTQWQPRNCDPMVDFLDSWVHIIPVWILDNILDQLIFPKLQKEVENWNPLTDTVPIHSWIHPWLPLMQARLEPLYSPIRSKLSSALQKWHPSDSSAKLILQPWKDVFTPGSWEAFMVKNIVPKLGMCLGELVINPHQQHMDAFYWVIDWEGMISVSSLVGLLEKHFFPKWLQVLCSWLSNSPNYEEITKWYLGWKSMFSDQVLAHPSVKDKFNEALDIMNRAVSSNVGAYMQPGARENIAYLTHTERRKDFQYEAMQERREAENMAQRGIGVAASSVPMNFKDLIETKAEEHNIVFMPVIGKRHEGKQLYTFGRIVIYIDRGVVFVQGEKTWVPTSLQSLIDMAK
# Variants of: B1
# Conditions: with ctbl1_human CTNNBL1, Q8WYA6
row,Variant,effect of a mutation on the interaction
1,R268H,with no effect

# Variants of: B2
# Conditions: with rab3i_human RAB3IP
row,Variant,effect of a mutation on the interaction
1,R235Q,with no effect

# Variants of: B3
# Conditions: with tfp11_human TFIP11, Q9UBB9
row,Variant,effect of a mutation on the interaction
1,W337R,with no effect
